Measured values as given in publication PMC12476982.
pKd: −log10 of the molar value.

Columns and labels:
Assay in all cases: fluorescence polarization
Conditions in all cases: FP: 10 nM Cy5 nucleosome in Buffer B (composition not in material) except 60 mM NaCl, quadratic fit, EMSA: 15 nM nucleosome, 15 min, room …
BRG1 (human) = system: BRG1 (human)
PBAF (human) = system: PBAF (human)
cBAF (ARID1A) (human) = system: cBAF (ARID1A) (human)
ncBAF (human) = system: ncBAF (human)

Work on Cy5 mononucleosome, 197-bp 601 DNA yielded a pKd (BRG1 (human)) of 6.94, a pKd (PBAF (human)) of 7.09 and a pKd (cBAF (ARID1A) (human)) of 7.35. For the same substance, the pKd (ncBAF (human)) was 7.77.
